From patent US9040626B2, “Nanofibers and morphology shifting micelles” (The Regents of the University of California, priority 2009, dated 2015) come the findings set out here.

d = 2'-deoxy (DNA); r = 2'-OH (RNA)

A short description of data set [1]: Zeta potential measurement with variable MgCl2 concentration. Type of data set: physicochemical. The following applies: vesicles, 5 mM MgCl2. An excerpt:
(§1) General Methods. All reagents were bought from TCI or Sigma-Aldrich and used without further purification. DNA synthesis reagents and modifiers were bought from Glen Research or AZCO scientific. 3,4-di(octadecyloxy)benzoic acid was synthesized via a standard literature procedure (Tuffin, R. P.; Toyne, K. J.; Goodby, J. W. J. Mater. Chem. 1996, 6, 1271-1282). All DNA was synthesized on an ABI-391 via standard solid phase synthesis on controlled pore glass supports. Fluorescence measurements were performed on a Zeiss LSM confocal fluorescence microscope. Reaction volumes of 50 μL were used in all fluorescence experiments of this type. […] DNA-surfactant and DNA concentrations were determined via UV-Vis on a Hitachi U-2810 spectrophotometer. Dh was determined by DLS on a Nano-ZS90 Malvern Instrument. Zeta potential was also measured on the Nano-ZS90 Malvern instrument. […] The identities of organic molecules were confirmed by ^1H (400 MHz) and ^13C (100 MHz) NMR spectra recorded on a Varian Mercury Plus spectrometer. […]
Zeta potential measurement with variable MgCl2 concentration. […] The zeta potential of these samples with variable MgCl2 concentrations was then measured by a Nano-ZS90 Malvern instrument. […]

Data set [2] in a line: Critical micelle concentration (CMC) determination with pyrene probe. Type of data set: physicochemical. The following applies: micelles after DNA2 hybridization. On the procedure:
Critical Micelle Concentration (CMC) determination. A stock solution of pyrene was prepared by adding 1 mg pyrene in 10 mL of 20 mM Tris buffer (pH 7.4) and sonicating for 12 hrs, followed by centrifugation at 12,000×g for 5 min. The supernatant containing pyrene as the fluorescent probe was utilized for this assay and measured on a plate reader fluorometer, SPECTRAMAX GEMINI EM (Molecular Devices). DNA-lipid concentration was measured via UV absorbance and micelles were accordingly diluted serially in 96-well microplates (black well, black bottom, FIA, Greiner Bio-One). Excitation was done over a 300-360 nm wavelength range and the emission was recorded at 390 nm. The slit width for excitation was fixed at 1 nm. The concentration was plotted on a logarithmic scale and the critical micelle concentration was determined at the intercept of the two tangents drawn where the decreasing surface tension becomes constant.

Data set [3] in a line: Particle size by DLS, TEM, AFM, SEM. Type of data set: physicochemical.
From the text: as §1
General Methods. […] Fluorescence measurements were performed with a microplate reader (Perkin Elmer, HTS7000 Plus, λex=485 nm, λem=535 nm) using black 96 well plates. Reaction volumes of 100 μL were used in all fluorescence experiments of this type. […]

A further data set concerns DNAzyme. Briefly: DNAzyme catalysis experiments: particle substrate vs ssDNA substrate. Type of data set: biochemical. The procedure:
DNAzyme catalysis experiments. Fluorescence was directly measured at time points of 2 min, 5 min, 10 min, and 15 min after adding DNAzyme to F-ssDNA solutions in a 96-well plate. Maximum fluorescence for the DNAzyme (5 nM) added to micellar particles (0.14 g/L) at 15 minutes was set to a value of 1 for normalization of data. Complete consumption of particle bound substrate was confirmed by a calibration curve plotted for fluorescence vs concentration of a fluorescein-modified oligonucleotide (DNA-F—see above for synthesis and sequence). i.e. plateau in resulting curve is due to consumption of substrate not product inhibition. […] Fluorescent product from shell DNA cleavage was measured from supernatant that passed through a 10,000 MWCO spin tube filter. i.e. particles are left behind, and fluorescent product comes through for analysis at each time point. […]
The DNAzyme catalyst consists of a conserved DNA sequence forming a catalytic domain with 5′- and 3′-ends as recognition sequences.^22 Therefore, a DNA substrate with a single RNA base (rA) as the site of cleavage was chosen for incorporation in the DNA-brush copolymer architecture used to form micellar aggregates (FIG. 25). […] By centrifuging at 14,000×g for 30 seconds at given time points, the ssDNA product was separated from particles as it passed through the MWCO filter for analysis by fluorescence. […]

With “DNA1-lipid: 3,4-di(octadecyloxy)benzoic acid conjugated to 5′-amino 9-mer ssDNA 5′-NH2-TCGCACCCA-3′; assembles into vesicles”, the zeta-potential in data set [1] is given as −13 mV. This substance also registered a critical micelle concentration in data set [2] of 300 nM. In addition, in data set [3] (after DNA2 addition to vesicles), the micelle size is recorded as 20-25 nm. Further, the vesicle diameter entry in data set [3] (spherical vesicles after dialysis, Tris 50 mM pH 7.4) is reported as “approx. 500 nm”.

In turn, “Fluorescein-5′-TCGCACCCrAGTCTCTCTCC-3′-Dabcyl (DNA TCGCACCCAGTCTCTCTCC; sugars from the 5' end d8 r1 d10, backbone not given here; further chemistry not fully specified) [F-ssDNA, fluorogenic single-stranded DNA substrate]” came in with a DNAzyme turnovers with DNAzyme (2 μM substrate, 5 nM catalyst) of 1.5 turnovers. For the same substance, the “DNAzyme turnover over the same time scale (15 minutes)” value with DNAzyme (F-ssDNA 1 μM, DNAzyme 5 nM) is given as “low turnover”.
